The results in this text go back to patent publication US20220144940A1 (VIELA BIO, published 2022).

Assay [1] deals with T1, HA-tagged human ILT7 on CT-550 cells (human, UniProt P59901 24-499). In words: cell-based or functional assay.
The target in assay [2] is T2, cynomolgus ILT7 (cynomolgus, UniProt P59901 24-499 (human entry)). In words: cell-based or functional assay.
The target of assay [3] is T1, HA-tagged human ILT7 on CT-550 cells. In words: flow cytometry on CT-550 cells. The method, then: (§1) Binding of anti-ILT7 variants and isotype controls on human and cynomolgus ILT7 was assessed by flow cytometry analysis using CT-550 and cynoILT7 CT-125 cells respectively. CT-125 cells were used as control. Cells were resuspended in Blocking Buffer (PBS supplemented with 10% FBS) at a concentration of 5 million cells per mL and transferred into a round-bottom 96-well plates (BD Falcon™ Clear Microtest Plate, BD Biosciences) at 100 μL per well. Anti-ILT7 variants and control antibodies were added onto the cells for 30 min at 4° C. on a plate shaker. Cells were washed three times with PBS and resuspended in Blocking Buffer (100 μL/well). Human IgG binding on cell surface was detected using a secondary anti-human IgG antibody conjugated to DyLight 649 (1 in 1000 dilution). Cells were incubated in the dark for 30 min at 4° C. on a plate shaker. Cells were washed three times with PBS and surface fluorescence was acquired using LSRII Flow Cytometry System and FACSDiva Software (both from BD Biosciences).
In order to determine the binding EC50 of ILT70019, ILT70028, ILT70052, ILT70076, ILT70080, ILT70083, ILT70089, ILT70100, ILT70137, ILT70142 and ILT70144 on cells expressing human ILT7, the candidates were screened for binding on CT-550 cells by flow cytometry. ILT70080 (EC₅₀=0.28 nM), ILT70083 (EC₅₀=0.37 nM), ILT70137 (EC₅₀=0.41 nM), ILT70144, ILT70142, ILT70052, and ILT70100 bound to human ILT7-expressing cells. […] The anti-ILT7 antibodies 7C7 (7C7 is described above in Example 1) and SBI33 (SBI33 refers to the anti-ILT7 antibody ILT7#33 provided in U.S. Published Application No. 2009/0280128) were used as positive controls.
For orientation: In flow cytometry, cells or beads pass a laser one at a time.

The target of assay [4] is T2, cynomolgus ILT7. Kind of assay: flow cytometry on CynoILT7 CT-125 cells. The method, then:
as §1
In order to determine the binding EC₅₀ of the variants on cells expressing cynomolgus ILT7, the antibodies were screened for binding on CynoILT7 CT-125 cells by flow cytometry. […] The graph in FIG. 3 represents the mean results from two independent experiments, and the table in FIG. 3 show the average EC₅₀.

Assay [5] has as its target T3, human ILT7 (human, UniProt P59901 24-499). In words: cell-based or functional assay.
For assay [6], the target named is T3, human ILT7. In words: flow cytometry (MFI) on cell line stably expressing human ILT7. The method, then:
(§2) Binding of afucosylated ILT70137 to ILT7 was determined using cell lines stably expressing human or cynomolgus monkey ILT7. The mean fluorescence intensity of cell-bound antibodies was assessed by flow cytometry. Cells were incubated with increasing concentrations of test antibody ranging from 0.004 to 333.3 nM for 30 minutes at 4° C. After incubation, cells were washed with cold PBS and incubated for 30 minutes at 4° C. with an anti-human-Alexa Fluor 647 antibody. Fluorescent intensity was then determined by FACS and EC₅₀ values were calculated using a non-linear fit equation in GraphPad Prism 6 software.

Assay [7] has as its target T4, recombinant human ILT7 protein (human, UniProt P59901 24-446, limits assumed).
T4 construct: Soluble recombinant protein used in ProteOn and BIAcore SPR; also called rILT7; Soluble Recombinant Human ILT7
In words: BIAcore SPR, IgG captured on chip, ILT7 protein as analyte, koff/kon. The method, then:
(§3) BIAcore (surface plasmon resonance) was used to measure the kinetic rate (kₒₙ, koff) constants for the binding of afucosylated IgG₁ ILT70137 to human ILT7 protein using an IgG-capture assay format. The binding of each concentration of a two-fold dilution series of the ILT7 protein was recorded after first capturing IgG onto the sensor chip surface, followed by either the ILT7 protein or instrument buffer. In between each pair of injections, the IgG capture surface was regenerated. Individual association and dissociation rate constants were then calculated from the resulting binding curves using the Biaevaluation software available through the vendor's software employing a 1:1 fitting model, which included a term to correct for mass transport limited binding, should it be detected. […] The individual errors for kₒₙ and koff were low, and the overall fit to the data was good as judged by Chi2 values of ˜1% of the calculated Rₘₐₓ (maximum response).
In general terms: Surface plasmon resonance follows binding to a sensor surface in real time, without labels.

In assay [8] the target is T4, recombinant human ILT7 protein. Kind of assay: BIAcore SPR, IgG captured on chip, ILT7 protein as analyte, 1:1 model. The method, then: as §3
Assay [9] addresses T2, cynomolgus ILT7. Kind of assay: flow cytometry (MFI) on cell line stably expressing cynomolgus monkey ILT7. The method, then: as §2
For assay [10], the target named is T2, cynomolgus ILT7. Kind of assay: flow cytometry on cynomolgus ILT7-expressing cells, bottom panel, table 'Ec50 (pM)'. The method, then: as §1
The target in assay [11] is T1, HA-tagged human ILT7 on CT-550 cells. In words: flow cytometry on human ILT7-expressing cells, left panel 'Human ILT7', table 'Ec50 (nM)'. The method, then: as §1
The target is the same in assay [12]. In words: flow cytometry (MFI) on human ILT7-expressing cells, left panel 'Human ILT7', table 'Ec50 (pM) Mean ± SD n=3'.
Assay [13] has as its target T2, cynomolgus ILT7. In words: flow cytometry (MFI) on cynomolgus ILT7-expressing cells, right panel 'Cynomolgus ILT7', table 'Ec50 (pM) Mean ± SD n=3'.
Assay [14] deals with T2, cynomolgus ILT7. Kind of assay: flow cytometry on cynomolgus ILT7-expressing cells, right panel 'Cyno ILT7', table 'Ec50 (nM)'. The method, then: as §1
The target in assay [15] is T1, HA-tagged human ILT7 on CT-550 cells. In words: flow cytometry (MFI) on human ILT7-expressing cells. The method, then:
as §1
Anfucosylated version of ILT70080.6 was generated. […] The tables in FIG. 15 provide the mean results of three independent binding experiments measuring mean fluorescence intensity (MFI).

Assay [16] addresses T2, cynomolgus ILT7. Kind of assay: flow cytometry (MFI) on cynomolgus ILT7-expressing cells. The method, then:
as §1

Assay [17] concerns the target T4, recombinant human ILT7 protein. In words: SPR on ProteOn.

As usually defined, the EC50 is the midpoint of the concentration-response curve. As a reminder, the Kd is the free concentration of one partner at which half of the binding sites on the other are occupied at equilibrium, for simple one-to-one binding. As usually defined, the koff is the rate constant with which the complex falls apart. Broadly, the kon is the second-order rate constant of association.

Values joined by “and” are separate entries in the source; they are usually repeats but may differ in a detail not shown here. Equal entries are not always repeated.

T1 sequence (P59901 24-499): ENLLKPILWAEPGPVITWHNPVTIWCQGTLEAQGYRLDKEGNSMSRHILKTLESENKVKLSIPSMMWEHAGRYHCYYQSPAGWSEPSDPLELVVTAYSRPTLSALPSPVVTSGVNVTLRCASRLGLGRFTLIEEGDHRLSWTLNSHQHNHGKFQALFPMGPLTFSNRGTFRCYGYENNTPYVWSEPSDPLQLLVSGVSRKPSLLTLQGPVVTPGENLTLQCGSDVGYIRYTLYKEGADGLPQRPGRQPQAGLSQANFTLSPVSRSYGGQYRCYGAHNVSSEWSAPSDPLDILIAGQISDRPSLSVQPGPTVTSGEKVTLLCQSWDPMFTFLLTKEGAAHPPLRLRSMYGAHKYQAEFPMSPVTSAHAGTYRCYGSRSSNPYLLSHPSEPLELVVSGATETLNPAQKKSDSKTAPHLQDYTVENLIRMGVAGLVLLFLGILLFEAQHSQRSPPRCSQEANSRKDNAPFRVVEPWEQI
T4 sequence (P59901 24-446 limits assumed): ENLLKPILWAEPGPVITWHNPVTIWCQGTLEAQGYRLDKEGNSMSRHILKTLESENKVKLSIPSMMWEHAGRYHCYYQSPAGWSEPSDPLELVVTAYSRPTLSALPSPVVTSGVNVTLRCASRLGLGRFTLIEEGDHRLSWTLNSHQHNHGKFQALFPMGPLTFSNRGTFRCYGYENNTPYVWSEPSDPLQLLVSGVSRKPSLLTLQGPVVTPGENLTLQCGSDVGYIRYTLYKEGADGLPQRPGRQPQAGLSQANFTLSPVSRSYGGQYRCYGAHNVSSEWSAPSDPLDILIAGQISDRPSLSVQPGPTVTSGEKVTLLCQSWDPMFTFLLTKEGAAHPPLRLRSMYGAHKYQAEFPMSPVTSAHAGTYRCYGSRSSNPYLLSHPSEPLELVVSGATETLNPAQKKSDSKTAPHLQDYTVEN
T2 sequence (P59901 other isoform, or with tags, fused parts or gaps limits assumed): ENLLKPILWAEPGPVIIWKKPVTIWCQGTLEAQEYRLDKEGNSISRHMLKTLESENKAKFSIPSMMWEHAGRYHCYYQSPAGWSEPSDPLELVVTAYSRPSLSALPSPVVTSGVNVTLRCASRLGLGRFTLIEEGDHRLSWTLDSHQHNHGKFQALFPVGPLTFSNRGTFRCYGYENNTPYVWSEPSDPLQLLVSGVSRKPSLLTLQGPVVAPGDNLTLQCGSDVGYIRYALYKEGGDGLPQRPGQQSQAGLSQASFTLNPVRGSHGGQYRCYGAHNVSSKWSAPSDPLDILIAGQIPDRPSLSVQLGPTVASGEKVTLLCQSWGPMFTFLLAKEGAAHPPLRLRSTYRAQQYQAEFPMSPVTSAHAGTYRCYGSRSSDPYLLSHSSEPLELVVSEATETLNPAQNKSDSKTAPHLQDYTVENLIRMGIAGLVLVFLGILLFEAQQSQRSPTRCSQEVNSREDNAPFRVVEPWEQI
T3 sequence (P59901 24-499): as the sequence (P59901 24-499) above

B1: ILT70137 (antibody, V domains shown)
VH: QVQLQQSGAEVKKPGASVKVSCKASGYTFTSYGISWVRQAPGQGLEWMGWISAYNGNTNYAQKLQGRVTMTTDTSTSTAYMELRSLRSDDTAVYYCARNGLWGWDSDAFDIWGRGTLVTVSS
VL: QSALTQPASVSGSPGQSITISCTGTSSDVGGYNYVSWYQQHPGKAPKLMIYDVSNRPSGVSNRFSGSKSGNTASLTISGLQAEDEADYYCSSYTSSSTVVFGGGTKVTVL
On to B1, for which the “ADCC EC50” value in assay [1] is 0.044 nM; with cynomolgus ILT7 [2], 0.015 nM. The concentration for a half-maximal effect (EC50) is 0.41 nM in [3] and 1.4 nM with cynomolgus ILT7 [4].

B2: afucosylated IgG1 ILT70137 (antibody, V domains shown)
VH: QVQLQQSGAEVKKPGASVKVSCKASGYTFTSYGISWVRQAPGQGLEWMGWISAYNGNTNYAQKLQGRVTMTTDTSTSTAYMELRSLRSDDTAVYYCARNGLWGWDSDAFDIWGRGTLVTVSS
VL: QSALTQPASVSGSPGQSITISCTGTSSDVGGYNYVSWYQQHPGKAPKLMIYDVSNRPSGVSNRFSGSKSGNTASLTISGLQAEDEADYYCSSYTSSSTVVFGGGTKVTVL
modifications: afucosylated (made as in Example 7: lacks the α-1,6 fucose moiety on the N-glycan at Asn-297 of the heavy chain)
notes: also called afucosylated ILT70137; Afuc IgG1 ILT70137
Turning to B2, the figures for the “ADCC EC50” value with human ILT7 [5] and in the assay with cynomolgus ILT7 [2] were 0.00419 nM and 0.00189 nM, respectively. In addition, the figures for the EC50 with human ILT7 [6] and in the assay with cynomolgus ILT7 [9] were 0.303 nM and 2.15 nM, respectively. Also, the equilibrium dissociation constant (Kd) in assay [7] was found to be 171 nM. Moreover, the koff in assay [8] came to 0.0318 s⁻¹. In addition, the kon in [8] was 186000 M⁻¹ s⁻¹.

B3: ILT70083 (antibody, V domains shown)
VH: EVQLLESGGGLVQPGGSLRLSCAASGFTFSSYAMSWVRQAPGKGLEWVSAISGSGGSTYYADSVKGWFTISRDNSKNTLYLQMNSLRAEDTAVYYCARRTYYYDSDGHSDVFDIWGRGTLVTVSS
VL: QSVVTQPPSVSAAPGQKVTISCSGSASNIGSNFVSWYQQLPGRAPKLLIYDNDKRDLGIPDRFSASISSTSAALAITGLQTEDEADYYCGTWDTSLTVGVFGGGTKLTVL
With B3, the “ADCC EC50” value in assay [1] is 0.089 nM and 0.094 nM; with cynomolgus ILT7 [2], 0.433 nM and 0.36 nM. Further, the half-maximal effective concentration (EC50) in assay [3] is 0.37 nM and 0.464 nM; with cynomolgus ILT7 [4] it was 1.37 nM; with cynomolgus ILT7 [10] it was 2.65 nM; in assay [11] it was 0.25 nM; in assay [12], 0.308 nM; with cynomolgus ILT7 [13], 1.28 nM.

B4: afucosylated ILT70083 (antibody, V domains shown)
VH: EVQLLESGGGLVQPGGSLRLSCAASGFTFSSYAMSWVRQAPGKGLEWVSAISGSGGSTYYADSVKGWFTISRDNSKNTLYLQMNSLRAEDTAVYYCARRTYYYDSDGHSDVFDIWGRGTLVTVSS
VL: QSVVTQPPSVSAAPGQKVTISCSGSASNIGSNFVSWYQQLPGRAPKLLIYDNDKRDLGIPDRFSASISSTSAALAITGLQTEDEADYYCGTWDTSLTVGVFGGGTKLTVL
modifications: afucosylated: lacks the α-1,6 fucose moiety on the N-glycan at Asn-297 of the heavy chain
Regarding B4, the “ADCC EC50” value turned out to be 0.0105 nM in assay [1] and 0.057 nM with cynomolgus ILT7 [2]. Further, the EC50 in assay [11] was 0.38 nM; in assay [12] it was 0.211 nM; with cynomolgus ILT7 [13], 0.863 nM.

B5: afucosylated ILT70080 (antibody, V domains shown)
VH: QVQLVQSGAEVKAPGTSVKVSCKASGDSFRNYAVSWVRQAPGQGLEWMGAMMPSFGTREHSQQFNGRVTLSADESTSTAYLELSSLRYDDTAVYYCAGSRDYNAYHFWTGPPDFWGRGTLVTVSS
VL: SYELTQPPSVSVAPGKTAKISCGGDSVGSTSVHWYQQKPGQAPVMVMFYNSDRPSGIPERFSGSISGNTATLTISRVEAGDEADYYCQVWDTSSDHPEFGGGTKLTVL
modifications: afucosylated: lacks the α-1,6 fucose moiety on the N-glycan at Asn-297 of the heavy chain
notes: also called Afucosylated variant ITL70080
Take B5: the “ADCC EC50” value in [1] is 0.001 nM; with cynomolgus ILT7 [2], 0.00051 nM. Further, the 50% effective concentration (EC50) in assay [11] is 0.34 nM; in the assay with cynomolgus ILT7 [14], 0.4 nM.

B6: afucosylated ILT70080.6 (antibody, V domains shown)
VH: QVQLVQSGAEVKKPGSSVKVSCKASGDSFRNYAVSWVRQAPGQGLEWMGAMMPSFGTREHSQQFQGRVTLTADESTSTAYMELSSLRSEDTAVYYCAGSRDYNAYHFWTGPPDFWGRGTLVTVSS
VL: SYVLTQPPSVSVAPGKTARITCGGDSVGSTSVHWYQQKPGQAPVLVIYYNSDRPSGIPERFSGSNSGNTATLTISRVEAGDEADYYCQVWDTSSDHPEFGGGTKLTVL
modifications: afucosylated
notes: also called afucosylated ILT0080.6
On to B6, for which the “ADCC EC50” value in [1] amounted to 0.00112 nM; with cynomolgus ILT7 [2], 0.00044 nM. Besides, the EC50 amounted to 0.152 nM in assay [15] and 0.366 nM with cynomolgus ILT7 [16].

B7: 10D10 (antibody, V domains shown)
VH: EVQLVESGGGVVQPGRSLRLSCAASGFTFSTYPIEWVRQAPGQGLEWIGNFHLYNDDTKYNEKFKGRVTMTTDTSTSTVYMELSSLRSEDTAVYYCTRGDDYGMDYWGQGTLVTVSS
VL: NIQMTQSPSSLSASVGDRVTITCKASQNVRTAVAWYQQKPGKAPKRLIYLASNRHTGVPSRFSGSGSGTDFTLTISSLQSEDFATYYCLQHWNYPFTFGPGTKLEIK
notes: Humanized variant of SBI28 from a framework-shuffled Fab library
B7: the “fold lower affinity than SBI28ch” value in assay [17] was determined as 3 fold.
